Where no end group is shown, it is not given here.
Assays:
rKV1.1 (rat) [1] = target: rKV1.1 (rat) (UniProt P10499)
Shaker IR (insect) [2] = target: Shaker IR (insect) (UniProt P08510)
hKV1.3 [3] = target: T1, hKV1.3 (Homo sapiens, UniProt P22001)
rKV1.6 (rat) [4] = target: rKV1.6 (rat) (UniProt P17659)
rKV1.2 (rat) [5] = target: rKV1.2 (rat) (UniProt P63142)
rKV1.1 (rat) [6] = target: rKV1.1 (rat) (UniProt P10499); remark: listed apart in the source
Shaker IR (insect) [7] = target: Shaker IR (insect) (UniProt P08510); remark: listed apart in the source
hKV1.3 [8] = target: T1, hKV1.3; remark: listed apart in the source
rKV1.6 (rat) [9] = target: rKV1.6 (rat) (UniProt P17659); remark: listed apart in the source
rKV1.2 (rat) [10] = target: rKV1.2 (rat) (UniProt P63142); remark: listed apart in the source
KV1.6 = conditions: cited from earlier work
Excerpt: In order to characterize the potency and selectivity profile, concentration-response curves were constructed for BcsTx1. […] A concentration-response curve was also constructed to determine the concentration at which BcsTx2 blocked half of the channels.

KV3.2 channels = conditions: cited from earlier work
KV1.1-4 and KV1.6 = conditions: cited from earlier work
Description: (§1) The pharmacological profile of BcsTx-1 and -2 were determined on a wide range of twelve KV channels (rKV1.1, rKV1.2, hKV1.3, rKV1.4, rKV1.5, rKV1.6, rKV2.1, rKV3.1, rKV4.2, rKV4.3, hERG and the insect channel Shaker IR; r: rat and h: human). Channels were expressed in X. laevis oocytes, and their currents were recorded by using two-electrode voltage-clamp technique. BcsTx1 (0.5 µM) inh ...

KV1.3 channels = conditions: cited from earlier work
Description: as §1

[11] = system: intermediate conductance K (Ca) channels; conditions: cited from earlier work

Chain of rKV1.1 (rat) (P10499 whole entry): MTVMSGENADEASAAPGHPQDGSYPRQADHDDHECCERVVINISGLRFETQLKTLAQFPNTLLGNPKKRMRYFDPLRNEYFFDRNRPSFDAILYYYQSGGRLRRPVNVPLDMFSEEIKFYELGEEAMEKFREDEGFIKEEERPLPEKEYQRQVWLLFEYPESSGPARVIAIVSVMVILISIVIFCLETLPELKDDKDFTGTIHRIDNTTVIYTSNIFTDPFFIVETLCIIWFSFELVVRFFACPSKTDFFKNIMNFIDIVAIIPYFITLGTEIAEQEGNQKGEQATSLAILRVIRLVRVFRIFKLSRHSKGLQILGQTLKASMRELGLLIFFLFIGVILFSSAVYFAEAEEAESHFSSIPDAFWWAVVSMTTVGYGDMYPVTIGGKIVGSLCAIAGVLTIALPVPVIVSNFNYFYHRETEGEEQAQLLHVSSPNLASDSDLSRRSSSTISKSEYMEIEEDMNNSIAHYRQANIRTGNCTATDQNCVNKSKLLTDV
Chain of Shaker IR (insect) (P08510 whole entry): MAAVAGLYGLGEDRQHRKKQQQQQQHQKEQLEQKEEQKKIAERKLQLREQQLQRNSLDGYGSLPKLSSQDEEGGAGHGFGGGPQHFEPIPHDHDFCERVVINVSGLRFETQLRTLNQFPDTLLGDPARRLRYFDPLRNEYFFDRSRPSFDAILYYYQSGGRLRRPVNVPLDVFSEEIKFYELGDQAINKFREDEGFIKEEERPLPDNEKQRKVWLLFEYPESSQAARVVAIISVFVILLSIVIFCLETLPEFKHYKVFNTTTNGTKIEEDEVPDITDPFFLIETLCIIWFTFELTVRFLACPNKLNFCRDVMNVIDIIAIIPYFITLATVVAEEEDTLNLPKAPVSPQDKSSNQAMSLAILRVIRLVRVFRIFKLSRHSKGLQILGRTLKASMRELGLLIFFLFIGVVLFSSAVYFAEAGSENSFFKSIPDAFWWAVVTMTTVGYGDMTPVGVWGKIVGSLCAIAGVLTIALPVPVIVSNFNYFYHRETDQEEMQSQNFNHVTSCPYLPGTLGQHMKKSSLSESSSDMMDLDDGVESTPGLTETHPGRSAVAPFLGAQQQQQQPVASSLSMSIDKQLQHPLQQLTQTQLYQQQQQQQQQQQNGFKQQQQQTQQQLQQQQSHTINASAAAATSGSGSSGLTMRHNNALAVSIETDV
Chain of rKV1.6 (rat) (P17659 whole entry): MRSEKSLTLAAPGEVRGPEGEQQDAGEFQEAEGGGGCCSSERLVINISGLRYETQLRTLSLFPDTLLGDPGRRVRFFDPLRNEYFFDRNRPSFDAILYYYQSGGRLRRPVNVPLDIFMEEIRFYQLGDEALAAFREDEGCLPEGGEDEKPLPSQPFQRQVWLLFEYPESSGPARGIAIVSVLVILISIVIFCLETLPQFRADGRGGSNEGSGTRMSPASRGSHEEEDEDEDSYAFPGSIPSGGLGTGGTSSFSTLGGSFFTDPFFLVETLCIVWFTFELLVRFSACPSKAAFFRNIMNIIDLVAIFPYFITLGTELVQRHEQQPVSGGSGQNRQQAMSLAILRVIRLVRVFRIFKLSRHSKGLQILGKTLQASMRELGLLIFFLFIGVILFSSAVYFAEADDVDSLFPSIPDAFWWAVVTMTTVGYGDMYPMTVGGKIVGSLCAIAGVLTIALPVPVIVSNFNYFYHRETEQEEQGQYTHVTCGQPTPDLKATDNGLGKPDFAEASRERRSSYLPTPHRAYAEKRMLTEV
Chain of rKV1.2 (rat) (P63142 whole entry): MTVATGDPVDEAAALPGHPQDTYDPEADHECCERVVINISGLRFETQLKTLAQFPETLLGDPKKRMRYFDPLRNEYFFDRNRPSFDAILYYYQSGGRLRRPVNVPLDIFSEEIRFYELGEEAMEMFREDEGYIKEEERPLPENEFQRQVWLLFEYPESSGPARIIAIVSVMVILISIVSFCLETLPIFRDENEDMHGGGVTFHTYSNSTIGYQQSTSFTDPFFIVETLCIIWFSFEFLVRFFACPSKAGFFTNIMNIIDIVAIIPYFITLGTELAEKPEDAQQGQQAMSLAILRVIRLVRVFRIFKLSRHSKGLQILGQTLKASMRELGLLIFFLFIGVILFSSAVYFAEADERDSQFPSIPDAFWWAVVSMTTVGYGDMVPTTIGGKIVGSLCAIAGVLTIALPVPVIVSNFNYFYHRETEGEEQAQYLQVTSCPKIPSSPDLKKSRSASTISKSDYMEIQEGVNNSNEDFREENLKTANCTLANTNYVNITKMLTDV
T1 sequence (P22001 whole entry): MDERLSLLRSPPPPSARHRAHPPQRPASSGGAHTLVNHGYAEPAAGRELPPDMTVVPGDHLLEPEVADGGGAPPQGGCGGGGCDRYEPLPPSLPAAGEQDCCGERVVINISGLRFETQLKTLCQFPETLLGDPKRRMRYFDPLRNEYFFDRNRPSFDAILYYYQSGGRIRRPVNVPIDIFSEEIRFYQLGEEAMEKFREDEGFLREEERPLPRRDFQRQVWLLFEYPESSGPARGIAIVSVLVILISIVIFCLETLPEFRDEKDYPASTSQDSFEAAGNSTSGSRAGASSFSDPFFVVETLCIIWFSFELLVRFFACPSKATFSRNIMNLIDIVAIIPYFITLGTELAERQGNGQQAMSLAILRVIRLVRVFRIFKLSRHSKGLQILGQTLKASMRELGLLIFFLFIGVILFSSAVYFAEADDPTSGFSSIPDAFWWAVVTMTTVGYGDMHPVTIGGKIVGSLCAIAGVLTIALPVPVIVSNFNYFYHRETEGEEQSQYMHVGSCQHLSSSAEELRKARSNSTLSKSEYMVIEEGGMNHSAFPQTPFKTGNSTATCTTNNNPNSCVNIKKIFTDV

BcsTx2 (from UniProt C0HJC3 1-37) (peptide)
percent inhibition of the channel's current by 3 µM BcsTx2, two-electrode voltage clamp on X. laevis oocytes (rKV1.1 (rat) [1]): 96%
percent inhibition of the channel's current by 3 µM BcsTx2, two-electrode voltage clamp on X. laevis oocytes (Shaker IR (insect) [2]): 94%
percent inhibition of the channel's current by 3 µM BcsTx2, two-electrode voltage clamp on X. laevis oocytes (hKV1.3 [3]): 100%
percent inhibition of the channel's current by 3 µM BcsTx2, two-electrode voltage clamp on X. laevis oocytes (rKV1.6 (rat) [4]): 98%
percent inhibition of the channel's current by 3 µM BcsTx2, two-electrode voltage clamp on X. laevis oocytes (rKV1.2 (rat) [5]): 100%
IC50 of block of the channel's K+ current, two-electrode voltage clamp on X. laevis oocytes, concentration-response curve (rKV1.1 (rat) [6]): 14.4 nM
IC50 of block of the channel's K+ current, two-electrode voltage clamp on X. laevis oocytes, concentration-response curve (Shaker IR (insect) [7]): 49.1 nM
IC50 of block of the channel's K+ current, two-electrode voltage clamp on X. laevis oocytes, concentration-response curve (hKV1.3 [8]): 13.1 nM
IC50 of block of the channel's K+ current, two-electrode voltage clamp on X. laevis oocytes, concentration-response curve (rKV1.6 (rat) [9]): 7.76 nM
IC50 of block of the channel's K+ current, two-electrode voltage clamp on X. laevis oocytes, concentration-response curve (rKV1.2 (rat) [10]): 80.4 nM

MgTX: toxin from Centruroides margaritatus (TIINVKCTSPKQCLPPCKAQFGQSAGAKCMNGKCKCYPH; ends and bridges not checked; cysteine pairing not given here; UniProt P40755 1-39, looked up)
IC50 (KV1.6): 5 nM
binding affinity to KV1.6 (in words) (KV1.6): binds with very high affinity to KV1.6

ShK: type 1 sea anemone toxin from Stichodactyla helianthus (Swiss-Prot P29187)
activity against KV3.2 (in words) (KV3.2 channels): shows activity against KV3.2 channels
block of KV1.1-4 and KV1.6 (in words) (KV1.1-4 and KV1.6): blocks KV1.1-4 and KV1.6
block of KV1.3 (in words) (KV1.3 channels): block KV1.3 channels
block of intermediate conductance K (Ca) channels (in words) [11]: block intermediate conductance K (Ca) channels

Reference: paper PMC3705364, “Biochemical and Electrophysiological Characterization of Two Sea Anemone Type 1 Potassium Toxins from a Geographically Distant Population of Bunodosoma caissarum” (Marine Drugs, 2013)
